In patent publication US20160200799A1:
Like-named read-outs stand apart in the source and are kept apart here.

How the values were obtained:
Experiment in all cases: cell-based or functional assay
[1] = target: Influenza virus A/Brisbane/59/2007 (H1N1) (Influenza A virus A/Brisbane/59/2007 (H1N1))
[2] = target: Influenza virus A/Indonesia/5/2005/PR8-IBCDC-RG2 (H5N1) (Influenza A virus A/Indonesia/5/2005/PR8-IBCDC-RG2 (H5N1))
[3] = target: Influenza virus A/Okuda/1957 (H2N2) (Influenza A virus A/Okuda/1957 (H2N2))
[4] = target: Influenza virus A/Panama/2007/1999 (H3N2) (Influenza A virus A/Panama/2007/1999 (H3N2))
[5] = target: Influenza virus A/Suita/1/2009pdm (H1N1 2009 pandemic) (Influenza A virus A/Suita/1/2009pdm (H1N1pdm))
[6] = target: Influenza virus A/Brisbane/59/2007 (H1N1) (Influenza A virus A/Brisbane/59/2007 (H1N1)); remark: listed apart in the source
[7] = target: Influenza virus A/Indonesia/5/2005/PR8-IBCDC-RG2 (H5N1) (Influenza A virus A/Indonesia/5/2005/PR8-IBCDC-RG2 (H5N1)); remark: listed apart in the source
[8] = target: Influenza virus A/Okuda/1957 (H2N2) (Influenza A virus A/Okuda/1957 (H2N2)); remark: listed apart in the source
[9] = target: Influenza virus A/Panama/2007/1999 (H3N2) (Influenza A virus A/Panama/2007/1999 (H3N2)); remark: listed apart in the source
[10] = target: Influenza virus A/Suita/1/2009pdm (H1N1 2009 pandemic) (Influenza A virus A/Suita/1/2009pdm (H1N1pdm)); remark: listed apart in the source

F045-092 completely humanized IgG antibody (control anti-HA antibody)
Infection inhibition rate (%) [1]: 0% | Infection inhibition rate (%) at 0.002 µg/mL [1]: 0% | Infection inhibition rate (%) at 0.006 µg/mL [1]: 0% | Infection inhibition rate (%) at 0.024 µg/mL [1]: 0% | Infection inhibition rate (%) at 0.391 µg/mL [1]: 0% | Infection inhibition rate (%) at 1.6 µg/mL [1]: 0% | Infection inhibition rate (%) at 6.3 µg/mL [1]: 5.3% | Infection inhibition rate (%) at 25.0 µg/mL [1]: 24.4% | Infection inhibition rate (%) at 100.0 µg/mL [1]: 30.2% | Infection inhibition rate (%) at 200.0 µg/mL [1]: 58.4% | Infection inhibition rate (%) at 0.024 µg/mL [2]: 0% | Infection inhibition rate (%) at 0.391 µg/mL [2]: 0% | Infection inhibition rate (%) at 0.98 µg/mL [2]: 0% | Infection inhibition rate (%) at 1.6 µg/mL [2]: 0% | Infection inhibition rate (%) at 6.3 µg/mL [2]: 0% | Infection inhibition rate (%) at 25.0 µg/mL [2]: 14.3% | Infection inhibition rate (%) at 100.0 µg/mL [2]: 28.2% | Infection inhibition rate (%) at 200.0 µg/mL [2]: 38.6% | Infection inhibition rate (%) [3]: 0% | Infection inhibition rate (%) at 0.024 µg/mL [3]: 0% | Infection inhibition rate (%) at 0.391 µg/mL [3]: 0% | Infection inhibition rate (%) at 1.6 µg/mL [3]: 0% | Infection inhibition rate (%) at 6.3 µg/mL [3]: 0% | Infection inhibition rate (%) at 25.0 µg/mL [3]: 0% | Infection inhibition rate (%) at 100.0 µg/mL [3]: 15.8% | Infection inhibition rate (%) at 200.0 µg/mL [3]: 39.4% | Infection inhibition rate (%) [4]: 0% | Infection inhibition rate (%) at 0.391 µg/mL [4]: 1.9% | Infection inhibition rate (%) at 1.6 µg/mL [4]: 31.4% | Infection inhibition rate (%) at 6.3 µg/mL [4]: 42.9% | Infection inhibition rate (%) at 25.0 µg/mL [4]: 96.7% | Infection inhibition rate (%) at 100.0 µg/mL [4]: 99% | Infection inhibition rate (%) at 200.0 µg/mL [4]: 99.5% | Infection inhibition rate (%) [5]: 0% | Infection inhibition rate (%) at 0.002 µg/mL [5]: 0% | Infection inhibition rate (%) at 0.006 µg/mL [5]: 0% | Infection inhibition rate (%) at 0.024 µg/mL [5]: 4.2% | Infection inhibition rate (%) at 0.391 µg/mL [5]: 4.2% | Infection inhibition rate (%) at 1.6 µg/mL [5]: 0% | Infection inhibition rate (%) at 6.3 µg/mL [5]: 6% | Infection inhibition rate (%) at 25.0 µg/mL [5]: 0% | Infection inhibition rate (%) at 100.0 µg/mL [5]: 16.1% | Infection inhibition rate (%) at 200.0 µg/mL [5]: 15.1%

B1: F083-336 completely humanized IgG antibody (antibody, V domains shown)
VH: QVQLQQSGAEVKQPGSSVKVSCKASGGIFRSNAISWVRQAPGQGLEWMGGIVALFGTANYAQKFQGRVTITADESTSTVYMELSSLRSEDTARYYCARNSGYHISGFYLDYWGQGTLVTVSS
VL: EIVLTQSPSSLSASVGDRVTITCRASQGISNYLAWYQQRPGKVPKLLIYTASTLLSGVPSRFSGGGSGTDYTLTISSLQPEDVATYYCQEYKSVPLTFGPGTKVEIK
Infection inhibition rate (%) at 0.002 µg/mL [6]: 2.3% | Infection inhibition rate (%) at 0.006 µg/mL [6]: 7.3% | Infection inhibition rate (%) at 0.024 µg/mL [6]: 11.1% | Infection inhibition rate (%) at 0.391 µg/mL [6]: 42.4% | Infection inhibition rate (%) at 0.98 µg/mL [6]: 32.4% | Infection inhibition rate (%) at 1.6 µg/mL [6]: 72.1% | Infection inhibition rate (%) at 6.3 µg/mL [6]: 90.5% | Infection inhibition rate (%) at 25.0 µg/mL [6]: 97.3% | Infection inhibition rate (%) at 100.0 µg/mL [6]: 100% | Infection inhibition rate (%) at 200.0 µg/mL [6]: 100% | Infection inhibition rate (%) [7]: 1% | Infection inhibition rate (%) at 0.024 µg/mL [7]: 0% | Infection inhibition rate (%) at 0.391 µg/mL [7]: 22.1% | Infection inhibition rate (%) at 1.6 µg/mL [7]: 40.5% | Infection inhibition rate (%) at 6.3 µg/mL [7]: 66.4% | Infection inhibition rate (%) at 25.0 µg/mL [7]: 86.7% | Infection inhibition rate (%) at 100.0 µg/mL [7]: 89.3% | Infection inhibition rate (%) at 200.0 µg/mL [7]: 98.5% | Infection inhibition rate (%) [8]: 2.5% | Infection inhibition rate (%) at 0.024 µg/mL [8]: 0% | Infection inhibition rate (%) at 0.391 µg/mL [8]: 19.9% | Infection inhibition rate (%) at 1.6 µg/mL [8]: 39.8% | Infection inhibition rate (%) at 6.3 µg/mL [8]: 81.5% | Infection inhibition rate (%) at 25.0 µg/mL [8]: 86.7% | Infection inhibition rate (%) at 100.0 µg/mL [8]: 85.9% | Infection inhibition rate (%) at 200.0 µg/mL [8]: 98.9% | Infection inhibition rate (%) [9]: 2.9% | Infection inhibition rate (%) at 0.391 µg/mL [9]: 4.8% | Infection inhibition rate (%) at 1.6 µg/mL [9]: 0% | Infection inhibition rate (%) at 6.3 µg/mL [9]: 0% | Infection inhibition rate (%) at 25.0 µg/mL [9]: 0% | Infection inhibition rate (%) at 100.0 µg/mL [9]: 0% | Infection inhibition rate (%) at 200.0 µg/mL [9]: 0% | Infection inhibition rate (%) [10]: 30.7% | Infection inhibition rate (%) at 0.002 µg/mL [10]: 0% | Infection inhibition rate (%) at 0.006 µg/mL [10]: 13.8% | Infection inhibition rate (%) at 0.024 µg/mL [10]: 30.7% | Infection inhibition rate (%) at 0.391 µg/mL [10]: 62.1% | Infection inhibition rate (%) at 1.6 µg/mL [10]: 93.2% | Infection inhibition rate (%) at 6.3 µg/mL [10]: 100% | Infection inhibition rate (%) at 25.0 µg/mL [10]: 100% | Infection inhibition rate (%) at 100.0 µg/mL [10]: 100% | Infection inhibition rate (%) at 200.0 µg/mL [10]: 100%
